These results are taken from article PMC4597782 (Nature, 2015).

The data set deals with the molecule itself. Put plainly: single-molecule pull-down.

A word on the stoichiometry N: it is the number of molecules, sites or subunits per partner or assembly.

B1: mGluR2-GFP (receptor)
chain: EGPAKKVLTLEGDLVLGGLFPVHQKGGPAEECGPVNEHRGIQRLEAMLFALDRINRDPHLLPGVRLGAHILDSCSKDTHALEQALDFVRASLSRGADGSRHICPDGSYATHSDAPTAVTGVIGGSYSDVSIQVANLLRLFQIPQISYASTSAKLSDKSRYDYFARTVPPDFFQAKAMAEILRFFNWTYVSTVASEGDYGETGIEAFELEARARNICVATSEKVGRAMSRAAFEGVVRALLQKPSARVAVLFTRSEDARELLAATQRLNASFTWVASDGWGALESVVAGSERAAEGAITIELASYPISDFASYFQSLDPWNNSRNPWFREFWEERFHCSFRQRDCAAHSLRAVPFEQESKIMFVVNAVYAMAHALHNMHRALCPNTTHLCDAMRPVNGRRLYKDFVLNVKFDAPFRPADTDDEVRFDRFGDGIGRYNIFTYLRAGSGRYRYQKVGYWAEGLTLDTSFIPWASPSAGPLPASRCSEPCLQNEVKSVQPGEVCCWLCIPCQPYEYRLDEFTCADCGLGYWPNASLTGCFELPQEYIRWGDAWAVGPVTIACLGALATLFVLGVFVRHNATPVVKASGRELCYILLGGVFLCYCMTFVFIAKPSTAVCTLRRLGLGTAFSVCYSALLTKTNRIARIFGGAREGAQRPRFISPASQVAICLALISGQLLIVAAWLVVEAPGTGKETAPERREVVTLRCNHRDASMLGSLAYNVLLIALCTLYAFKTRKCPENFNEAKFIGFTMYTTCIIWLAFLPIFYVTSSDYRVQTTTMCVSVSLSGSVVLGCLFAPKLHIILFQPQKNVVSHRAPTSRFGSAAPRASANLGQGSGSQFVPTVCNGREVVDSTTSSL
As for B1, the “stoichiometry N” value worked out at 2.
